Source: patent US20020098541A1 (published 2002)

What was measured:
Experiment in all cases: co-immunoprecipitation from co-transfected 293 cell lysates: anti-FLAG IP, anti-HA immunoblot
FLAG tagged TRAF 2 = biological target: T1, FLAG tagged TRAF 2 (UniProt Q12933 1-501, limits assumed)
T1 sequence (looked up): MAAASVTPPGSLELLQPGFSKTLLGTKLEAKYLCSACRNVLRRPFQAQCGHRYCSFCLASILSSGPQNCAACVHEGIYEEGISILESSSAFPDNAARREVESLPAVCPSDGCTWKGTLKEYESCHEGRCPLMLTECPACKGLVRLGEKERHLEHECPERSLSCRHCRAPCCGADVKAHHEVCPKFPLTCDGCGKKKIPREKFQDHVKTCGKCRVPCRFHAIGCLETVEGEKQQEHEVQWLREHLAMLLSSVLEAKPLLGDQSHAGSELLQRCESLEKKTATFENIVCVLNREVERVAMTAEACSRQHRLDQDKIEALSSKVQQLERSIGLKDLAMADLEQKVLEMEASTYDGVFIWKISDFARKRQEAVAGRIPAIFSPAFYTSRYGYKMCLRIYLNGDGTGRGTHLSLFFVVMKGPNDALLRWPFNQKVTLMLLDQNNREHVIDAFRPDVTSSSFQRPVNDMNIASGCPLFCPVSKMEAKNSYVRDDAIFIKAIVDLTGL
Description: (§1) For TRAF binding assays, 5×10⁵ 293 cells were transfected with 10 μg of HA tagged TR12 and 10 μg of FLAG tagged TRAF 1, 2, 3, 5, or 6 by the calcium phosphate method and cells were harvested 48 hours post transfection in lysis buffer (with 1% NP-40). Whole cell lysates were immunoprecipated with anti-FLAG M2 beads (Sigma, MO), washed 5× with lysis buffer (without BSA), boiled 5 minutes, separated by 10% SDS PAGE, transferred to nitrocellulose, probed with anti-HA HRP (Roche), and developed with ECL (Amersham).
(§2) Since NF-κB activation by TNFR superfamily members is mediated primarily by the TRAF family of signaling molecules, the ability of TR12 to bind any of the TRAF molecules was studied. 293 cells were co-transfected with a FLAG tagged TRAF expression plasmid and a hemagglutinin tagged TR12 expression plasmid.

FLAG tagged TRAF 3 = biological target: T2, FLAG tagged TRAF 3 (UniProt Q13114 1-568, limits assumed)
T2 sequence (looked up): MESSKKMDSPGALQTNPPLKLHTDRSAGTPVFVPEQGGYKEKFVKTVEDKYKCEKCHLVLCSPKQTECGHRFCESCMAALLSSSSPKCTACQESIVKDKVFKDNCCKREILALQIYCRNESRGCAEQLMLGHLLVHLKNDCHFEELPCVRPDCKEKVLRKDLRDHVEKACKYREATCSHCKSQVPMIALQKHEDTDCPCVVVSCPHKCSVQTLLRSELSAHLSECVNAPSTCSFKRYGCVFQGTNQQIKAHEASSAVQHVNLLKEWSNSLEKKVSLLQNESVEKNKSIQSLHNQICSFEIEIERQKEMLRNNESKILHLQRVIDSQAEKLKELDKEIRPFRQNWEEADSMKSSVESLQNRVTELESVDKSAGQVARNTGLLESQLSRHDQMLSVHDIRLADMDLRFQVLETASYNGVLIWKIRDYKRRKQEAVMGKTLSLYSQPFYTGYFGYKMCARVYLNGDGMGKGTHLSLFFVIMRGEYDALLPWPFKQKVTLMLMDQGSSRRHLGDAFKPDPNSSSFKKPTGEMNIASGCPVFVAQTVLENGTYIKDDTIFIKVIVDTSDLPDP
Description: as §1, §2

FLAG tagged TRAF 6 = biological target: T3, FLAG tagged TRAF 6 (UniProt Q9Y4K3 1-522, limits assumed)
T3 sequence (looked up): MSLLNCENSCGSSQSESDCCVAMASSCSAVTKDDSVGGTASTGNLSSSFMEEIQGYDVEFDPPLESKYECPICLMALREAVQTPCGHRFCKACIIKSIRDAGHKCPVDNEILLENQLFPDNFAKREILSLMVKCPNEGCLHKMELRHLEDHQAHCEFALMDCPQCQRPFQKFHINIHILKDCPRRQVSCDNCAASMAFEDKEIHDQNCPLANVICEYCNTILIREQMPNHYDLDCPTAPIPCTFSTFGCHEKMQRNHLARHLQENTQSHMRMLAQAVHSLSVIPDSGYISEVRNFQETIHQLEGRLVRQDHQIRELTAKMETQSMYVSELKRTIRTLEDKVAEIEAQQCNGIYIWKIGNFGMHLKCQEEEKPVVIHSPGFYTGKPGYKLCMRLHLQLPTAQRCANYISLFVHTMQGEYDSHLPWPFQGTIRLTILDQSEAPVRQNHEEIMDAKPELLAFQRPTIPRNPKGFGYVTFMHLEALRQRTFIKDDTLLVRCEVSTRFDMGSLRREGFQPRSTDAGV
Description: as §1, §2

FLAG tagged TRAF 5 = FLAG tagged TRAF 5 (UniProt O00463 1-557, limits assumed)
Description: as §1, §2

Measured: binding result

FLAG tagged TRAF 5, sequence (O00463 whole entry): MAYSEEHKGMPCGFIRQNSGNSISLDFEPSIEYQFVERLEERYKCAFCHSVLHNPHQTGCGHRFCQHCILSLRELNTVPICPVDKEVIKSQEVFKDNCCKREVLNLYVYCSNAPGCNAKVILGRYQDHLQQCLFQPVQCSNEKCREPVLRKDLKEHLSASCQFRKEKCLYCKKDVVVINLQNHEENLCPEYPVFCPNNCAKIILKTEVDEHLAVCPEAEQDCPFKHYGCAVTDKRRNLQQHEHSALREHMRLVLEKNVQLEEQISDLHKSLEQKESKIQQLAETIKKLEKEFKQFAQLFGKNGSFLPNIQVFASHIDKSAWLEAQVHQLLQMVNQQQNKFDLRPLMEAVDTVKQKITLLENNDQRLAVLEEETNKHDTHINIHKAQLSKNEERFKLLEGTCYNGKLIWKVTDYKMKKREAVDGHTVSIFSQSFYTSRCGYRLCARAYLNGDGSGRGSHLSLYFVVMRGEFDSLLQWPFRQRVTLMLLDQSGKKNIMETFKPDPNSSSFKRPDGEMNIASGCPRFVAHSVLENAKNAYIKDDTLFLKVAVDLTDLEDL

B1: HA tagged TR12 (TNFR Related Gene 12) (receptor)
chain: STTLWQCPPGEEPDLDPGQGTLCRPCPPGTFSAAWGSSPCQPHARCSLWRRLEAQVGMATRDTLCGDCWPGWFGPWGVPRVPCQPCSWAPLGTHGCDEWGRRARRGVEVAAGASSGGETRQPGNGTRAGGPEETAAQYAVIAIVPVFCLMGLLGILVCNLLKRKGYHCTAHKEVGPGPGGGGSGINPAYRTEDANEDTIGVLVRLITEKKENAAALEELLKEYHSKQLVQTSHRPVSKLPPAPPNVPHICPHRHHLHTVQGLASLSGPCCSRCSQKKWPEVLLSPEAVAATTPVPSLLPNPTRVPKAGAKAGRQGEITILSVGRFRVARIPEQRTSSMVSEVKTITEAGPSWGDLPDSPQPGLPPEQQALLGSGGSRTKWLKPPAENKAEENRYVVRLSESNLVI
notes: Expressed from a plasmid in transfected 293 cells and tested in whole cell lysate; It includes the predicted leader (about residues 1-25), which may be cleaved in cells; also called hemagglutinin tagged TR12; not shown: HA (hemagglutinin) tag
no binding: all assays above
